Measurements reported in the Human Domainome abundance scans (Beltran et al. 2025).
± gives the uncertainty stated by the source.

B1: Double-stranded RNA-binding protein Staufen homolog 1, residues 183 to 249; numbered along this chain, O95793 (parent)
chain: KSEISQVFEIALKRNLPVNFEVARESGPPHMKNFVTKVSVGEFVGEGEGKSKKISKKNAAIAVLEEL

Variants of: B1
Experiment: abundance fitness (aPCA) (normalised: wild type 0, dead -1); higher = more abundant; growth selection in yeast, the domain comes from the species named
Conditions: Homo sapiens

KSEISQVFEIALKRNLPVNFEVARESGPPHMKNFVTKVSVGEFVGEGEGKSKKQSKKNAAIAVLEEL [I54Q] and KSEISQVFEIALKRNLPVNFEVARESGPPHMKNFVTKVSVGEFVGEGEGKSKKTSKKNAAIAVLEEL [I54T] are within error of each other in abundance fitness: -0.052 ± 0.042 for the first, -0.132 ± 0.049 for the second.

Compared with KSEISQVFEIALKRNLPVNFEVARESGPPHMKNFVTKVSVGEFVGEGEGKSKKFSKKNAAIAVLEEL [I54F], KSEISQVFEIALKRNLPVNFEVARESGPPHMKNFVTKVSVGEFVGEGEGKSKKHSKKNAAIAVLEEL [I54H] is higher in abundance fitness: -0.661 ± 0.12 for the first, -0.221 ± 0.075 for the second.

KSEISQVFEIALKRNLPVNFEVARESGPPHMKNFVTKVSVGEFVGEGEGKSKKSSKKNAAIAVLEEL [I54S] and KSEISQVFEIALKRNLPVNFEVARESGPPHMKNFVTKVSVGEFVGEGEGKSKKVSKKNAAIAVLEEL [I54V] are within error of each other in abundance fitness: -0.066 ± 0.045 for the first, -0.075 ± 0.038 for the second.

Going from KSEISQVFEIALKRNLPVNFEVARESGPPHMKNFVTKVSVGEFVGEGEGKSKKESKKNAAIAVLEEL [I54E] to KSEISQVFEIALKRNLPVNFEVARESGPPHMKNFVTKVSVGEFVGEGEGKSKKLSKKNAAIAVLEEL [I54L], the abundance fitness falls from 0.09 ± 0.043 to -0.017 ± 0.036.

Going from KSEISQVFEIALKRNLPVNFEVARESGPPHMKNFVTKVSVGEFVGEGEGKSKKRSKKNAAIAVLEEL [I54R] to KSEISQVFEIALKRNLPVNFEVARESGPPHMKNFVTKVSVGEFVGEGEGKSKKASKKNAAIAVLEEL [I54A], the abundance fitness rises from -0.23 ± 0.033 to -0.063 ± 0.042.

Compared with KSEISQVFEIALKRNLPVNFEVARESGPPHMKNFVTKVSVGEFVGEGEGKSKKCSKKNAAIAVLEEL [I54C], KSEISQVFEIALKRNLPVNFEVARESGPPHMKNFVTKVSVGEFVGEGEGKSKKMSKKNAAIAVLEEL [I54M] is higher in abundance fitness: -0.26 ± 0.052 for the first, -0.051 ± 0.047 for the second.

Compared with KSEISQVFEIALKRNLPVNFEVARESGPPHMKNFVTKVSVGEFVGEGEGKSKKYSKKNAAIAVLEEL [I54Y], KSEISQVFEIALKRNLPVNFEVARESGPPHMKNFVTKVSVGEFVGEGEGKSKKDSKKNAAIAVLEEL [I54D] is higher in abundance fitness: -0.642 ± 0.084 for the first, -0.04 ± 0.072 for the second.

First: KSEISQVFEIALKRNLPVNFEVARESGPPHMKNFVTKVSVGEFVGEGEGKSKKPSKKNAAIAVLEEL [I54P]
Second: KSEISQVFEIALKRNLPVNFEVARESGPPHMKNFVTKVSVGEFVGEGEGKSKKKSKKNAAIAVLEEL [I54K]
The abundance fitness of the first is lower: -0.724 ± 0.073 for the first, -0.081 ± 0.049 for the second.

First: KSEISQVFEIALKRNLPVNFEVARESGPPHMKNFVTKVSVGEFVGEGEGKSKKWSKKNAAIAVLEEL [I54W]
Second: KSEISQVFEIALKRNLPVNFEVARESGPPHMKNFVTKVSVGEFVGEGEGKSKKIDKKNAAIAVLEEL [S55D]
The abundance fitness of the first is higher: -0.619 ± 0.05 for the first, -0.918 ± 0.096 for the second.

Going from KSEISQVFEIALKRNLPVNFEVARESGPPHMKNFVTKVSVGEFVGEGEGKSKKIQKKNAAIAVLEEL [S55Q] to KSEISQVFEIALKRNLPVNFEVARESGPPHMKNFVTKVSVGEFVGEGEGKSKKIAKKNAAIAVLEEL [S55A], the abundance fitness rises from -0.769 ± 0.066 to -0.092 ± 0.042.

KSEISQVFEIALKRNLPVNFEVARESGPPHMKNFVTKVSVGEFVGEGEGKSKKIMKKNAAIAVLEEL [S55M] and KSEISQVFEIALKRNLPVNFEVARESGPPHMKNFVTKVSVGEFVGEGEGKSKKINKKNAAIAVLEEL [S55N] are within error of each other in abundance fitness: -0.931 ± 0.074 for the first, -0.8 ± 0.096 for the second.

KSEISQVFEIALKRNLPVNFEVARESGPPHMKNFVTKVSVGEFVGEGEGKSKKIYKKNAAIAVLEEL [S55Y] and KSEISQVFEIALKRNLPVNFEVARESGPPHMKNFVTKVSVGEFVGEGEGKSKKIWKKNAAIAVLEEL [S55W] are within error of each other in abundance fitness: -1.07 ± 0.16 for the first, -1 ± 0.079 for the second.

Compared with KSEISQVFEIALKRNLPVNFEVARESGPPHMKNFVTKVSVGEFVGEGEGKSKKIEKKNAAIAVLEEL [S55E], KSEISQVFEIALKRNLPVNFEVARESGPPHMKNFVTKVSVGEFVGEGEGKSKKIVKKNAAIAVLEEL [S55V] is lower in abundance fitness: -0.662 ± 0.059 for the first, -0.865 ± 0.053 for the second.

KSEISQVFEIALKRNLPVNFEVARESGPPHMKNFVTKVSVGEFVGEGEGKSKKILKKNAAIAVLEEL [S55L] and KSEISQVFEIALKRNLPVNFEVARESGPPHMKNFVTKVSVGEFVGEGEGKSKKIIKKNAAIAVLEEL [S55I] are within error of each other in abundance fitness: -0.843 ± 0.049 for the first, -0.718 ± 0.12 for the second.

KSEISQVFEIALKRNLPVNFEVARESGPPHMKNFVTKVSVGEFVGEGEGKSKKIFKKNAAIAVLEEL [S55F] and KSEISQVFEIALKRNLPVNFEVARESGPPHMKNFVTKVSVGEFVGEGEGKSKKIKKKNAAIAVLEEL [S55K] are within error of each other in abundance fitness: -0.915 ± 0.11 for the first, -0.889 ± 0.069 for the second.

First: KSEISQVFEIALKRNLPVNFEVARESGPPHMKNFVTKVSVGEFVGEGEGKSKKIHKKNAAIAVLEEL [S55H]
Second: KSEISQVFEIALKRNLPVNFEVARESGPPHMKNFVTKVSVGEFVGEGEGKSKKICKKNAAIAVLEEL [S55C]
The abundance fitness of the first is lower: -0.895 ± 0.11 for the first, -0.535 ± 0.091 for the second.

KSEISQVFEIALKRNLPVNFEVARESGPPHMKNFVTKVSVGEFVGEGEGKSKKIGKKNAAIAVLEEL [S55G] and KSEISQVFEIALKRNLPVNFEVARESGPPHMKNFVTKVSVGEFVGEGEGKSKKITKKNAAIAVLEEL [S55T] are within error of each other in abundance fitness: -0.818 ± 0.048 for the first, -0.815 ± 0.062 for the second.

KSEISQVFEIALKRNLPVNFEVARESGPPHMKNFVTKVSVGEFVGEGEGKSKKISAKNAAIAVLEEL [K56A] and KSEISQVFEIALKRNLPVNFEVARESGPPHMKNFVTKVSVGEFVGEGEGKSKKISFKNAAIAVLEEL [K56F] are within error of each other in abundance fitness: -0.457 ± 0.069 for the first, -0.476 ± 0.11 for the second.

KSEISQVFEIALKRNLPVNFEVARESGPPHMKNFVTKVSVGEFVGEGEGKSKKISDKNAAIAVLEEL [K56D] and KSEISQVFEIALKRNLPVNFEVARESGPPHMKNFVTKVSVGEFVGEGEGKSKKISHKNAAIAVLEEL [K56H] are within error of each other in abundance fitness: -0.661 ± 0.18 for the first, -0.743 ± 0.33 for the second.

KSEISQVFEIALKRNLPVNFEVARESGPPHMKNFVTKVSVGEFVGEGEGKSKKISEKNAAIAVLEEL [K56E] and KSEISQVFEIALKRNLPVNFEVARESGPPHMKNFVTKVSVGEFVGEGEGKSKKISGKNAAIAVLEEL [K56G] are within error of each other in abundance fitness: -0.504 ± 0.094 for the first, -0.599 ± 0.056 for the second.
